Results taken from article PMC8062929, “ZmOrphan94 Transcription Factor Downregulates ZmPEPC1 Gene Expression in Maize Bundle Sheath Cells”.

T1: Trx::ZmOrphan94 (Zea mays B73, UniProt C0P6E9 1-264)
T1 sequence: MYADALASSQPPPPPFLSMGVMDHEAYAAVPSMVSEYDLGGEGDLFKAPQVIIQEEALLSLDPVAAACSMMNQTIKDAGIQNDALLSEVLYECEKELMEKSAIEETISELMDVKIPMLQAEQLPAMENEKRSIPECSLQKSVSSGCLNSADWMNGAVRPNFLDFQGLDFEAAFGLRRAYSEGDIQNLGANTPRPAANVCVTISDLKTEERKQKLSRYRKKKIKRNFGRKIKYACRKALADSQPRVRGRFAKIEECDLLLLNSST


Key:
Trx::ZmOrphan94 [1] = biological target: T1, Trx::ZmOrphan94; assay: EMSA; out-competed by unlabelled WT probe (400x); EMSA: 1 ug protein, 50 fmol probe in 10 ul; 10 mM HEPES pH 7.9, 40 mM KCl, 1 mM EDTA, 1 mM DTT, 50 ng herring sperm DNA, 15 ug BSA, 10% glycerol, 1 h on ice; 5% native PAGE; details: protein: recombinant; tags: N-terminal Trx (pET32a); label: 32P; 5' overhang 4 nt on each strand as annealed
Trx::ZmOrphan94 [2] = biological target: T1, Trx::ZmOrphan94; assay: EMSA; strongest band; out-competed by unlabelled WT probe (400x); EMSA: 1 ug protein, 50 fmol probe in 10 ul; 10 mM HEPES pH 7.9, 40 mM KCl, 1 mM EDTA, 1 mM DTT, 50 ng herring sperm DNA, 15 ug BSA, 10% glycerol, 1 h on ice; 5% native PAGE; details: protein: recombinant; tags: N-terminal Trx (pET32a); label: 32P; 5' overhang 4 nt on each strand as annealed

Row | Binder | binding result (Trx::ZmOrphan94 [1]) | binding result (Trx::ZmOrphan94 [2])
1 | 5U-ZmPEPC1-2 (dsDNA) DNA 1: ACGTGCGAGGGCCGCCCGTTCCCGTGCACAGCCACG DNA 2: ATCACGTGGCTGTGCACGGGAACGGGCGGCCCTCGC | binds | –
2 | 5U-ZmPEPC1-1 (dsDNA) DNA 1: ACGTGGCGGTTACCGCCGATCACATGCCCAAGGCCG DNA 2: ACATCGGCCTTGGGCATGTGATCGGCGGTAACCGCC | binds | –
3 | 5U-ZmPEPC1-3 (dsDNA) DNA 1: ACGTGTCCCGTGCACAGCCACACACACACCCGCCCG DNA 2: ATCACGGGCGGGTGTGTGTGTGGCTGTGCACGGGAC | – | binds
